Measurements from the nanobody polyreactivity screen of Harvey et al. (2022).

experiment: yeast display, Sf9 membrane polyspecificity reagent, FACS + sequencing; frameworks hold sequencing errors
Outline: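 Genes from sorted yeast were amplified by colony PCR, read by MiSeq 2 × 250 sequencing and filtered on CDR length. These cells carried a synthetic nanobody library in Saccharomyces cerevisiae BJ5465 and were sorted by FACS into low and high (top ~1%) gates on anti-HA and streptavidin fluorescence. Polyreactivity is labelled according to the gate of origin.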

Sequence | polyreactivity (PSR sort gate)
QVQLVESGGGLVQAGGSLSLSCDASGRIIHSYAMGWYRQEPGKERELVAAISWSGTSTYYADSVKGRFTISRDNAKNTVYLQMNSLKPEDTEVYYCAARGRYVFDGYRMYFWGQGSQVTVSS | high polyreactivity
QVQLVESGGGLVQAGGSLSLSCDASGSTFYYNAMGWYRQAPGKERELVAAITFTGGSTYADSVKGRFTISRDNAKNTVYLQMNSLKPEDTAVYYCSATIQGHDYLGTGYDYWGQGTQVTVSS | low polyreactivity
QVQLVESGGGLVQAGGSLSLSCSASGSIFAGYARGWYRQAPGKERELVAAISVSGGGTYYADSVKGRFTISRDNAKNTVYLQMNSLKPEDTAVYYCAATGSSRYGRNYYSWGQGTQVTVSS | high polyreactivity
QVQLVESGGGLVQAGGSLSLSSAASGRTFSGYAMGWYRQAPGKERELVAAIDRGDGTNYADSVKGRFTISRDNAKNTVYLQMNSLKPEDTAVYYCAADYSYGSTSHTYTGFDYWGQGTQVTVSS | low polyreactivity
QVQLVESGGGLVQAGGSLSLTCAASGRILYRYAMGWYRPAPGKERDLVAAISWSGGSTYYADSVKGRFTISRDNAKNTVYLQLYSLKPEDTAVYYCNAVRASRSGGFDYWGQGTQVTVSS | high polyreactivity
QVQLVESGGGLVQAGGSLSLTWAASGRTFLEYTMGWYRQAPGKERELVAAISSTGGSTNYADSVKGRFTISRDNAKNSVYLQMNSVKPEDTAVYYCAARLRRRSATSTRMGYWGLGTQVTVSS | high polyreactivity
QVQLVESGGGLVQAGGSPRLSCAASGRIFGVNAMGWYRQAPGKERELVAAISVSGDSTYYADSVKGRFTISRDNAKNTVYLQMNSLKPEDTAVYYCYAGYTFVPADLTDEYYWGQGTQVTVSS | low polyreactivity
QVQLVESGGGLVQAGGSPRLSCAASGRTFRSNAMGWYRQAPGKERELVAAISWSGGSTYYADSVKGRFTISRDNAKNTVYLQLNSLKPEDTAVYYCAAGSYWSPYGQSFWPKYDYWGQGSQVTVSS | high polyreactivity
QVQLVESGGGLVQAGGSRRISWAASGSTFPWNVMGWYRQAPGKERELVAAISSSDGRTYYADSVKGRFTISRDNAKNTVYLQMNSLNPDDTAVDYCAASVAYYWYRTWLFDYDYWGQGTEVTVSS | high polyreactivity
QVQLVESGGGLVQAGGSRRLSCAASGLTFANYVMGWYIQAPGKERELVAAISRSGGSTYYADSVKGRFTISRDNAKNTVYLQMNSLNPEDTAVYYCAAAALDPKGSRYDYWGQGTQVTVSS | low polyreactivity
QVQLVESGGGLVQAGGSRRLSCAASGLTVHDNGMGWYRQAPGQEREVVAAISWSDGTTYYADSVKGRVSISRDNAKNTVYLQMNSLKPEDTAVFYCAAEAYYFWDLVDEDYWGQGTQVTVSS | high polyreactivity
QVQLVESGGGLVQAGGSRRLSCAASGNTFTWYTMGWYRQAPAKERELVAVITSDGSTYYADSVKGRFTISRDNAKNTVYLQMNSLKPEDTAVYYCNALSADWYPEEDYWGQGTQVTVSS | low polyreactivity
QVQLVESGGGLVQAGGSRRLSCAASGRIFGVYAMGWYRQAPGKERELVAAIDRRGGRTYYADSVKGRFTISRDNAKNTVYLQMNSLKPEDTAVYYFATARYRADMGYWGQGTQVTVSS | high polyreactivity
QVQLVESGGGLVQAGGSRRLSCAASGRTFYKYAMGWYRQAPGKERELVAAISGGGTTNYADSVKGRFTISRDNAKNTVYLQMNSLKPEDTAVYYCNAARTRWATGYDYWGQGTQVTVSS | low polyreactivity
QVQLVESGGGLVQAGGSRRLSCAASGSIFIPYVMGWYRQAPGKERELVAVITSGGDTYYADSVKGRFTISRDNAKNTVYLQMNSLKPEDTAVYYCNATFWYPPWWYEYDYWGQGTQVTVSS | low polyreactivity
QVQLVESGGGLVQAGGSRRLSCAASGSIFYYNTMGWSRQAPGKERELVAAMRFDDGSTYYADSVKGRFTISRDNAKYTVYLQMNSLKPEDTAVYYCSADWIVVSEFGLDYHMDYWGQGNQVTVSS | low polyreactivity
QVQLVESGGGLVQAGGSRRLSCAASGSTFRANAMGWYRQAPGKERELVAAITSSGGSTYYADSVKGRFTISRDNAKNTVYLQMNSLKPEDTAVYYCAAYPRPYIGYTDGYVWYEFDYWGQGTQVTVSS | low polyreactivity
QVQLVESGGGLVQAGGSRRLSCADSGSIFDQYTMGWSRQAPGKEWELVAGISSGGITNYADSVKGRFTLSRDNAKNTVYLQMTSLKPEDTAVYYCPADNWDLAEYDYWGQGPQVTVSS | low polyreactivity
QVQLVESGGGLVQAGGSRRLTCAASGSTFTQYPMGWYRQAPGKERELVAGISWGGSSTYYADSVKGRFTISRDNAKNTVYLEMNSLKPEDSEVYYCASAVWREYGYYFVYWDYSWGQGTQGTVSS | low polyreactivity
QVQLVESGGGLVQAGGSRSLSCAASGSIFLVNAMGWYRQAPGKERELVAAINSGGSTYYADSVKGRFTISRDNAKNTVYLQMNSLKPEDTAVYYCAADFWLKVWQDTDYDYDYWGQGTQVTVSS | low polyreactivity
QVQLVESGGGLVQAGGSVRLSCAASGRTSAWYAMGWYRQAPVKERELVADISGSADSTYYADSVKGRFTISRDNAKYTVYVQMHSLKPEDTAVYYRATSISTPTGDPFDYWGQRTQVTVSS | low polyreactivity
QVQLVESGGGLVQAGGSVRLSCAASGSIFGYYALGWYRQAPGTERELVAAISSGGSTKYADSVKGRFTISRDNAKNTVYLQMNSLKPEDTAVYYCATRIRSGSYPYPRYDYWGQGTQVTVSS | high polyreactivity

Sequence | polyreactivity (PSR sort gate)
QVQLVESGGGLVQAGGSVRLSCAASGSTFYHYALGWYRQAPGKERELVAAISWYGGSTYYADSVKGRFTISRDNAKNTVYLQMNSLKPEDTAVYYCAARGRARQRTSFEYWGQGTQVTVSS | high polyreactivity
QVQLVESGGGLVQAGGTLPLSCAASGYTISRNAKGWYRQAPGKARELDAAISRGGRTNYADSVKGRFTISRDNAKNSVYLHLNSLKPEDTAVYYCAANSTTGLRSPRGAGGHDYWGQGTQVTVSS | high polyreactivity
QVQLVESGGGLVQAGGTLRISCAASGSTAYVMGWYRQAPGKEMELVAAISKSGGSTYYADSVKGRFTISRDNAKNTVYLQMNSLKPEDTAVYYCAALYPTTTAYRYGYWGQGTQVTVSS | high polyreactivity
QVQLVESGGGLVQAGGTLRLICAASGFTISKYAMGWYRQAPGKERELVAVISSGGLTNYADSVKGRFTISRDNAKNTVYLQMNSLKPEDSEVYYCAAIGWRTRSRFVYWGQGTQVTVAS | high polyreactivity
QVQLVESGGGLVQAGGTLRLSCAASGFIFGYNAMGWYRQAPGKERELVARINSGGNTNYADSVKGLFSISRDNAKNTVYLLMNSLKPEDTAVYYCARDASNRYDYWRQGTQVTVSS | low polyreactivity
QVQLVESGGGLVQAGGTLRLSCAASGFIFTRYAMGWYSQAPGKERELVAAIKLSGTSTYYADSVKGRFTISRDNAKYTVYLQMNSLKPEDSAVYYCAATSSYIYPYGYWGQGTQVTVSS | high polyreactivity
QVQLVESGGGLVQAGGTLRLSCAASGFTFGFYAMGWYRQAPGKERELVAAITWSGGSTYYADSVKGRFTISRDNAKNTVYLQMNSLKPEDTAVYYCNAYTYGSEFDYWGQGTQVTVSS | high polyreactivity
QVQLVESGGGLVQAGGTLRLSCAASGFTFTSNAMGWYRQEPGKERELVAAITSSGGITYYADSVKGRFTISRDNAKNTVYLQMNSLKPEDNAVYYCAASISSYNSPGYGYWGQGTQVTVSS | low polyreactivity
QVQLVESGGGLVQAGGTLRLSCAASGFTFYSNTMGWYRQAPGKERELFAAITRTGVSTYYADSVKGRFTISRDNAKNTVYLQMNSLKPEDTAVYYCAALVKGQGTVHRYYYLGQGTQVTVSS | high polyreactivity
QVQLVESGGGLVQAGGTLRLSCAASGGTFATYAMGWCRQGPGKERELVAAITQSGGTTYYADSVKRRFTISRDNANNTVYLQMNSLKPEDTAVYYCNAEASQAVYYAYEYWGQGTQVTVSS | low polyreactivity
QVQLVESGGGLVQAGGTLRLSCAASGIIFVWNAMGWYRQAPGKERELVAAITNGGSTYYADSVKGRFTISRDNAKNTVYLQMNSLKPEDTAVYYCNVRYFFRFRDDYWGQGTQVTVSS | low polyreactivity
QVQLVESGGGLVQAGGTLRLSCAASGIIFYYYAMGWYRQAPGKERELVAAITGTGSRTYYADSVKGRFTISRDNAKNTVYLQMNSLKPEDTADYYCNARSFATGSKVPARGYWGQGTQVTVSS | high polyreactivity
QVQLVESGGGLVQAGGTLRLSCAASGITFHRYDMGWYRQAPGKERELVADITWSGGSTYYADSVKGRFTISRDNAKNTVYLQMNSLKPEDTAVYYCAADASTYTYTPYDNWGQGTQVTVSS | low polyreactivity
QVQLVESGGGLVQAGGTLRLSCAASGRIFSRYVMGWYRQAPGKQRELVASISWSGGSTRYADSVKGRFTISRDNAKNTVYVQMNSLKPEDTAVYYCAARFILSKYGSGVRYNYWGQGTQVTVSS | high polyreactivity
QVQLVESGGGLVQAGGTLRLSCAASGRISAFNAMGWYRQAPGKERELVAAIHVSGGNTYYADSVKGRFTISRDNAKNTVYLQMNSLKPEDTAVYYCAAERRRWGVDYYYWGQGTQVTVST | high polyreactivity
QVQLVESGGGLVQAGGTLRLSCAASGRISTHNAMGWYRQAPGKERELVAAITSGGRTTYADSVKGRFTISRDNAKNTVYLLMNSLKPEDTAVYYCNADTGLGSLDFDKRDYWGQGTQVTVSS | low polyreactivity
QVQLVESGGGLVQAGGTLRLSCAASGRTFAYNAMGWYRQAPGKERELVAAITWSGDSTYYADSVKGRFTISRDNAKKTVYLQRNSLKPEDTAVYYCAADYFGGPSYEFDYWGQGTQVTVSS | low polyreactivity
QVQLVESGGGLVQAGGTLRLSCAASGRTFNTYAMGWYRQAPGKERELVAAISSGGRTYYADSVKGRFTISRDNAMLTVYLQMNSLKPEDTAVYYCAAKRFQYRTLYEFWGLGTQVTVSS | high polyreactivity
QVQLVESGGGLVQAGGTLRLSCAASGRTFYFYAMGWYRQAPGKERELVAAITSRVGRTYYADSVKGRFTISRDNAKNTVYLQMNSLKPEDTAVYYCAAEGVYRMGYWGQGTQVTVSS | high polyreactivity
QVQLVESGGGLVQAGGTLRLSCAASGRTIKQNAMGWYRQAPGKERELVATIRNGGNTNYADSVKGRFTISRDNAKNNVYLQMNSLKPEDTAVYYCAAARSPYKYSYWGQGTQVTVSS | high polyreactivity
QVQLVESGGGLVQAGGTLRLSCAASGRTYYGYAMGWYRQATGKERQLVAAIRSTTGSTYYADSVKGRFTISRDNAKITVYLQMNSLKPEDTAVYYCASAYPFYADMDYWGQGTQVTVSS | low polyreactivity
